# Paper PMC3420232
# B1: Flag-tagged recombinant human TRAIL (sTRAIL), unlabeled, P50591 95-281 (ligand)
# chain: TSEETISTVQEKQQNISPLVRERGPQRVAAHITGTRGRSNTLSSPNSKNEKALGRKINSWESSRSGHSFLSNLHLRNGELVIHEKGFYYIYSQTYFRFQEEIKENTKNDKQMVQYIYKYTSYPDPILLMKSARNSCWSKDAEYGLYSIYQGGIFELKENDRIFVSVTNEHLIDMDHEASFFGAFLVG
# Target: wild-type human TRAILR1 (human), O00220
# Test: radioligand binding; competition on cells: 4x10^5 murine fibroblasts expressing the (chimeric) TRAIL receptor in PFA (PBS, 2% FCS, 0.002% sodium azide), 83 ng/ml 125I-TRAIL with or without unlabeled recombinant human TRAIL (83-5300 ng/ml), 4 hours on ice; cells spun through phthalate oil; 68 kDa used for TRAIL
# Details: remark: other sources report otherwise
binder,measurement,value
B1,IC50,17.7 nM
